Laboratory results as given in patent US20070078092A1 (CUREGENICS, published 2007).
Square brackets hold non-standard residues; d marks the D form. Ends that are not written are not given here. * marks the point of attachment. Cholesteryloxycarbonyl = CC(C)CCC[C@@H](C)[C@H]1CC[C@H]2[C@@H]3CC=C4C[C@@H](OC(=O)*)CC[C@]4(C)[C@H]3CC[C@]12C; Lithocholoyl = C[C@H](CCC(=O)*)[C@H]1CC[C@H]2[C@@H]3CC[C@@H]4C[C@H](O)CC[C@]4(C)[C@H]3CC[C@]12C; FITC = O=C1OC2(c3ccc(O)cc3Oc3cc(O)ccc32)c2ccc(NC(=S)*)cc21; Biotin = O=C1N[C@H]2[C@H](CS[C@H]2CCCCC(=O)*)N1; hLeu = CC(C)CC[C@H](N)C(=O)O; VitB6 = vitamin B6 moiety; Orn = NCCC[C@H](N)C(=O)O; Nva = CCC[C@H](N)C(=O)O; Dap = NC[C@H](N)C(=O)O

B1: PTR 6194 (peptide)
peptide: Lithocholoyl-RPR[Nva]YA[hLeu]-NH2
SMILES: CCC[C@H](NC(=O)[C@H](CCCNC(=N)N)NC(=O)[C@@H]1CCCN1C(=O)[C@H](CCCNC(=N)N)NC(=O)CC[C@@H](C)[C@H]1CC[C@H]2[C@@H]3CC[C@@H]4C[C@H](O)CC[C@]4(C)[C@H]3CC[C@]12C)C(=O)N[C@@H](Cc1ccc(O)cc1)C(=O)N[C@@H](C)C(=O)N[C@@H](CCC(C)C)C(N)=O
B2: PTR 6402 (peptide)
peptide: Cholesteryloxycarbonyl-[dK][dK][dK]RPR[Nva]Y[Dap][hLeu]K(FITC)-NH2
SMILES: CCC[C@H](NC(=O)[C@H](CCCNC(=N)N)NC(=O)[C@@H]1CCCN1C(=O)[C@H](CCCNC(=N)N)NC(=O)[C@@H](CCCCN)NC(=O)[C@@H](CCCCN)NC(=O)[C@@H](CCCCN)NC(=O)O[C@H]1CC[C@@]2(C)C(=CC[C@H]3[C@@H]4CC[C@H]([C@H](C)CCCC(C)C)[C@@]4(C)CC[C@@H]32)C1)C(=O)N[C@@H](Cc1ccc(O)cc1)C(=O)N[C@@H](CN)C(=O)N[C@@H](CCC(C)C)C(=O)N[C@@H](CCCCNC(=S)Nc1ccc2c(c1)C(=O)OC21c2ccc(O)cc2Oc2cc(O)ccc21)C(N)=O
B3: PTR 6384 (peptide)
peptide: H-[Orn]P[Orn][Nva]Y[Dap][hLeu]-NH2
SMILES: CCC[C@H](NC(=O)[C@H](CCCN)NC(=O)[C@@H]1CCCN1C(=O)[C@@H](N)CCCN)C(=O)N[C@@H](Cc1ccc(O)cc1)C(=O)N[C@@H](CN)C(=O)N[C@@H](CCC(C)C)C(N)=O
B4: PTR 6400 (peptide)
peptide: Cholesteryloxycarbonyl-[dK][dK][dK]KPR[Nva]Y[Dap][hLeu]-NH2
SMILES: CCC[C@H](NC(=O)[C@H](CCCNC(=N)N)NC(=O)[C@@H]1CCCN1C(=O)[C@H](CCCCN)NC(=O)[C@@H](CCCCN)NC(=O)[C@@H](CCCCN)NC(=O)[C@@H](CCCCN)NC(=O)O[C@H]1CC[C@@]2(C)C(=CC[C@H]3[C@@H]4CC[C@H]([C@H](C)CCCC(C)C)[C@@]4(C)CC[C@@H]32)C1)C(=O)N[C@@H](Cc1ccc(O)cc1)C(=O)N[C@@H](CN)C(=O)N[C@@H](CCC(C)C)C(N)=O
B5: PTR 6398 (peptide)
peptide: Cholesteryloxycarbonyl-[dK][dK][dK][Orn]PR[Nva]Y[Dap][hLeu]-NH2
SMILES: CCC[C@H](NC(=O)[C@H](CCCNC(=N)N)NC(=O)[C@@H]1CCCN1C(=O)[C@H](CCCN)NC(=O)[C@@H](CCCCN)NC(=O)[C@@H](CCCCN)NC(=O)[C@@H](CCCCN)NC(=O)O[C@H]1CC[C@@]2(C)C(=CC[C@H]3[C@@H]4CC[C@H]([C@H](C)CCCC(C)C)[C@@]4(C)CC[C@@H]32)C1)C(=O)N[C@@H](Cc1ccc(O)cc1)C(=O)N[C@@H](CN)C(=O)N[C@@H](CCC(C)C)C(N)=O
B6: PTR 6382 (peptide)
peptide: Cholesteryloxycarbonyl-[Orn]PR[Nva]Y[Dap][hLeu]-NH2
SMILES: CCC[C@H](NC(=O)[C@H](CCCNC(=N)N)NC(=O)[C@@H]1CCCN1C(=O)[C@H](CCCN)NC(=O)O[C@H]1CC[C@@]2(C)C(=CC[C@H]3[C@@H]4CC[C@H]([C@H](C)CCCC(C)C)[C@@]4(C)CC[C@@H]32)C1)C(=O)N[C@@H](Cc1ccc(O)cc1)C(=O)N[C@@H](CN)C(=O)N[C@@H](CCC(C)C)C(N)=O
B7: PTR 6380 (peptide)
peptide: H-[Orn]PR[Nva]Y[Dap][hLeu]-NH2
SMILES: CCC[C@H](NC(=O)[C@H](CCCNC(=N)N)NC(=O)[C@@H]1CCCN1C(=O)[C@@H](N)CCCN)C(=O)N[C@@H](Cc1ccc(O)cc1)C(=O)N[C@@H](CN)C(=O)N[C@@H](CCC(C)C)C(N)=O
B8: PTR 6388 (peptide)
peptide: Cholesteryloxycarbonyl-RP[Orn][Nva]Y[Dap][hLeu]-NH2
SMILES: CCC[C@H](NC(=O)[C@H](CCCN)NC(=O)[C@@H]1CCCN1C(=O)[C@H](CCCNC(=N)N)NC(=O)O[C@H]1CC[C@@]2(C)C(=CC[C@H]3[C@@H]4CC[C@H]([C@H](C)CCCC(C)C)[C@@]4(C)CC[C@@H]32)C1)C(=O)N[C@@H](Cc1ccc(O)cc1)C(=O)N[C@@H](CN)C(=O)N[C@@H](CCC(C)C)C(N)=O
B9: PTR 6386 (peptide)
peptide: Cholesteryloxycarbonyl-[Orn]P[Orn][Nva]Y[Dap][hLeu]-NH2
SMILES: CCC[C@H](NC(=O)[C@H](CCCN)NC(=O)[C@@H]1CCCN1C(=O)[C@H](CCCN)NC(=O)O[C@H]1CC[C@@]2(C)C(=CC[C@H]3[C@@H]4CC[C@H]([C@H](C)CCCC(C)C)[C@@]4(C)CC[C@@H]32)C1)C(=O)N[C@@H](Cc1ccc(O)cc1)C(=O)N[C@@H](CN)C(=O)N[C@@H](CCC(C)C)C(N)=O
B10: PTR 6390 (peptide)
peptide: Cholesteryloxycarbonyl-RPR[Nva]Y[Dap]-OH
SMILES: CCC[C@H](NC(=O)[C@H](CCCNC(=N)N)NC(=O)[C@@H]1CCCN1C(=O)[C@H](CCCNC(=N)N)NC(=O)O[C@H]1CC[C@@]2(C)C(=CC[C@H]3[C@@H]4CC[C@H]([C@H](C)CCCC(C)C)[C@@]4(C)CC[C@@H]32)C1)C(=O)N[C@@H](Cc1ccc(O)cc1)C(=O)N[C@@H](CN)C(=O)O

Each binder was assayed against protein kinase B (PKB) (assay: cell-based or functional assay).

Binder	% Inhibition of PKB activity at 1 µM [%]	% Inhibition of PKB activity at 10 µM [%]
RQIKIWFQNRRMKWKKRPRXYAX (Nva, Hol of the 6184 part) [MPS ab60025-4]	80	96

Biological target: protein kinase B (PKB)
Test: cell-based or functional assay
Remark: another data set of the same source

Binder	IC50, in vitro PKB inhibition [nM]
RQIKIWFQNRRMKWKKRPRXYAX (Nva, Hol of the 6184 part) [MPS ab60025-4]	200

Biological target: protein kinase B (PKB)
Test: cell-based or functional assay
Remark: another data set of the same source

Binder	IC50, kinase assay PKB [nM]
VitB6-RPR[Nva]Y[Dap][hLeu] [PTR 6232]	1000
Lithocholoyl-GRPR[Nva]YA[hLeu]-NH2 [PTR 6192]	2500
B1	2000
{Galactopyranosyl‑O‑CO}-RPR[Nva]YA[hLeu]-NH2 [PTR 6224]	5000
Lauryl-RPR[Nva]Y[Dap][hLeu]-NH2 [PTR 6160]	8000
{Testosterone‑yl‑O‑CO}-RPR[Nva]YA[hLeu]-NH2 [PTR 6226]	3000
VitB6-RPR[Nva]YA[hLeu]-NH2 [PTR 6228]	2000
Biotin-RPR[Nva]Y[Dap][hLeu]-NH2 [PTR 6158]	1000
Lithocholoyl-RPR[Nva]Y[Dap][hLeu]-NH2 [PTR 6220]	2000
{S‑carbofluorescin}-RPR[Nva]Y[Dap][hLeu]-NH2 [PTR 6182]	3000
{Testosterone‑yl‑O‑CO}-RPR[Nva]Y[Dap][hLeu]-NH2 [PTR 6212]	7000
{Galactopyranosyl‑O‑CO}-RPR[Nva]Y[Dap][hLeu]-NH2 [PTR 6214]	10000
RPR[Nva]YA[hLeu]-NH2 (not fully specified (N-terminus)) [PTR 6202]	300
{VitE‑Succinate}-RPR[Nva]YA[hLeu]-NH2 [PTR 6242]	1000
{H‑1‑adamantyl}-RPR[Nva]YA[hLeu]-NH2 [PTR 6200]	300
Lithocholoyl-GRPR[Nva]Y[Dap][hLeu]-NH2 [PTR 6218]	800

These binders were tested against protein kinase A (PKA) (assay: cell-based or functional assay).

Binder	IC50, kinase assay PKA [nM]
Lithocholoyl-GRPR[Nva]YA[hLeu]-NH2 [PTR 6192]	> 10000
B1	> 10000
{Galactopyranosyl‑O‑CO}-RPR[Nva]YA[hLeu]-NH2 [PTR 6224]	8000
Lauryl-RPR[Nva]Y[Dap][hLeu]-NH2 [PTR 6160]	50000
Biotin-RPR[Nva]Y[Dap][hLeu]-NH2 [PTR 6158]	> 100000
{S‑carbofluorescin}-RPR[Nva]Y[Dap][hLeu]-NH2 [PTR 6182]	> 10000
RPR[Nva]YA[hLeu]-NH2 (not fully specified (N-terminus)) [PTR 6202]	> 10000
{H‑1‑adamantyl}-RPR[Nva]YA[hLeu]-NH2 [PTR 6200]	> 10000

Biological target: protein kinase B (PKB)
Test: cell-based or functional assay
Remark: another data set of the same source

Binder	IC50, in vitro kinase assay PKB [nM]
B2	500
B3	> 10000
B4	300
{Coumarin‑3‑oyl}-RPR[Nva]Y[Dap][hLeu]-NH2 [PTR 6392]	5000
B5	300
{HO‑CO‑(CH2)2‑CO}-[dK][dK][dK]RPR[Nva]Y[Dap][hLeu]-NH2 [PTR 6394]	10000
B6	360
B7	> 10000
B8	2000
{Vitamin E‑CO‑(CH2)2‑CO}-[dK][dK][dK]RPR[Nva]Y[Dap][hLeu]-NH2 [PTR 6396]	200
B9	2000
B10	2000
